{"source": "patent US20090081724A1", "about": "(BIONOMICS, published 2009)", "binders": {"B1": {"name": "DB-Q2C R353G mutant (other, not shown: small tags and cut ends)", "chain": "KVQEQHRQKHFEKRRNPAAGLIQSAWRFYATNLSGTDLHSTWQYYERTVTVPMYSSQTQTYGASRLIPPLNQLELLRNLKSKSGLAFRKDPPPEPSPSQKVSLKDRVFSSPRGVAAKGKGSPQAQTVRRSPSADQSLEDSPSKVPKSWSFGDRSRARQAFRIKGAASRQNSEEASLPGEDIVDDKSCPCEFVTEDLTPGLKVSIRAVCVMRFLVSKRKFKESLRPYDVMDVIEQYSAGHLDMLSRIKSLQSRVDQIVGRGPAITDKDRTKGPAEAELPEDPSMMGRLGKVEKQVLSMEKKLDFLVNIYMQRMGIPPTETEAYFGAKEPEPAPPYHSPEDSREHVDRHGCIVKIVRSSSSTGQKNFSAPPAAPPVQCPPSTSWQPQSHPRQGHGTSPVGDHGSLVRIPPPPAHERSLSAYGGGNRASMEFLRQEDTPGCRPPEGTLRDSDTSISIPSVDHEELERSFSGFSISQSKENLDALNSCYAAVAPCAKVRPYIAEGESDTDSDLCTPCGPPPRSATGEGPFGDVGWAGPRK", "notes": "Only the intracellular C-terminal region stood in the bait, made with the same primers as the wt construct; also called R353G KCNQ2 mutant"}}, "molecular_target": "AD-CaM (Calmodulin, encoded by the CALM2 gene, fused to the activation domain) (human, UniProt P0DP24 1-149)", "test": "yeast two-hybrid, HIS3 and LacZ reporters"}
{"binder": "B1", "values": [{"measurement": "binding result", "value": "no binding"}]}
